Laboratory results from US20240115603A1 (Zymeworks, published 2024).
Changes are numbered by the printed parent chain.

Legend:
[1] = target: T1, WT G-CSFR(Ig-CRH), purified, tag cleaved (human, UniProt Q99062 26-331); assay: SPR (Biacore T200), WT G-CSFR(Ig-CRH) amine-coupled
T1 construct: also called G-CSFRWT; wild type G-CSFR ECD
T1 chain: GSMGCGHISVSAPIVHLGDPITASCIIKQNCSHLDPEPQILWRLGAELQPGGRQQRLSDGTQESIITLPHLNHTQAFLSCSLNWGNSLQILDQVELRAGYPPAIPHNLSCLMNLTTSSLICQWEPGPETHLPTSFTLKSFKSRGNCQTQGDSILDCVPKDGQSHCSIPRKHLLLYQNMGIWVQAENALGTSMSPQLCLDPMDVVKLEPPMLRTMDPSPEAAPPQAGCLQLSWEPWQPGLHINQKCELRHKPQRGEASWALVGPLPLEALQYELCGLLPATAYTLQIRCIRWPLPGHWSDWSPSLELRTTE

[2] = target: T2, G-CSFR(Ig-CRH)E design 130, purified, tag cleaved (human, UniProt Q99062 26-331); assay: SPR (Biacore T200), G-CSFR(Ig-CRH)E amine-coupled, G-CSFE injected; KD relative to WT:WT control (larger = weaker)
T2 construct: SPR protein; also called Design 130 G-CSFR(Ig-CRH)E
T2 chain: T1 chain with R43E, R169D
Description: (§1) The SPR binding assays were carried out on a Biacore T200 instrument (GE Healthcare, Mississauga, ON, Canada) with PBS-T (PBS+0.05% (v/v) Tween 20) running buffer at a temperature of 25° C. CMS Series S sensor chip, Biacore amine coupling kit (NHS, EDC and 1 M ethanolamine), and 10 mM sodium acetate buffers were all purchased from GE Healthcare. PBS running buffer with 0.05% Tween20 (PBS-T) was purchased from Teknova Inc. (Hollister, CA).
(§2) To determine binding affinity of G-CSFE to G-CSFRE the G-CSFRE mutant was captured by standard amine coupling as described by the manufacturer (GE LifeSciences). Briefly, immediately after EDC/NHS activation, a 5 μg/mL solution of G-CSFRE in 10 mM NaOAc, pH 5.0, was injected at a flow rate of 5 μL/min until a receptor density of ˜700-900 RU was reached. The remaining active groups were quenched by a 420 s injection of 1 M ethanolamine hydrochloride-NaOH pH 8.5 at 10 μL/min. Using single-cycle kinetics, six concentrations of a two-fold dilution series of the corresponding G-CSFE mutant starting at 200 nM with a blank buffer control were sequentially injected at 25 μL/min for 300s with a 1800s dissociation phase, resulting in a set of sensorgrams with a buffer blank reference. The same sample titration was also performed on a reference cell with no variants captured. The chip was regenerated to prepare for the next injection cycle by one pulse of 10 mM glycine/HCl, pH 2.0, for 30 s at 30 μL/min.
(§3) Double-referenced sensorgrams from duplicate or triplicate repeat injections were analyzed using Biacore™ T200 Evaluation Software v3.0 and fit to the 1:1 Langmuir binding model.

[3] = target: T3, G-CSFR(Ig-CRH)E design 134 (R41E_R141E_R167D), purified, tag cleaved (human, UniProt Q99062 26-331); assay: as above
T3 construct: also called Design 134 G-CSFR(Ig-CRH)E; design 137 G-CSFR(Ig-CRH)E
T3 chain: T1 chain with R43E, R143E, R169D
Description: as §1, §2, §3

[4] = target: T4, G-CSFR(Ig-CRH)E design 303, purified, tag cleaved (human, UniProt Q99062 26-331); assay: SPR (Biacore T200), G-CSFR(Ig-CRH)E amine-coupled, G-CSFE injected; steady-state derived KD relative to steady-state WT:WT KD
T4 construct: SPR protein; also called Design 303 G-CSFR(Ig-CRH)E
T4 chain: T1 chain with E95K, R169D
Description: as §2, §3
(§4) Kinetic-derived affinity constants (KD) where obtained by fitting the association and dissociation phases of the curves. […] For the cases in which the kinetic parameters could not be fit an attempt was made to derive a steady state affinity constant.

[5] = target: T5, G-CSFR(Ig-CRH)E design 307, purified, tag cleaved (human, UniProt Q99062 26-331); assay: as above
T5 construct: SPR protein; also called Design 307 G-CSFR(Ig-CRH)E
T5 chain: T1 chain with R43E, D199K, D202K, R290E
Description: as §2, §3, §4

[6] = target: T6, G-CSFR(Ig-CRH)E design 304, purified, tag cleaved (human, UniProt Q99062 26-331); assay: SPR (Biacore T200), G-CSFR(Ig-CRH)E amine-coupled, G-CSFE injected; KD relative to WT:WT control (larger = weaker)
T6 construct: SPR protein; also called Design 304 G-CSFR(Ig-CRH)E
T6 chain: T1 chain with R43E, E95K, R169D
Description: as §1, §2, §3

[7] = target: T7, G-CSFR(Ig-CRH)E design 402, purified, tag cleaved (human, UniProt Q99062 26-331); assay: SPR (Biacore T200), G-CSFR(Ig-CRH)E amine-coupled, G-CSFE injected; steady-state derived KD relative to steady-state WT:WT KD
T7 construct: SPR protein; also called Design 402 G-CSFR(Ig-CRH)E
T7 chain: T1 chain with R43E, R169E, Q176E, R290E
Description: as §2, §3, §4

[8] = target: T8, G-CSFR(Ig-CRH)E design 300, purified, tag cleaved (human, UniProt Q99062 26-331); assay: SPR (Biacore T200), G-CSFR(Ig-CRH)E amine-coupled, G-CSFE injected; KD relative to WT:WT control (larger = weaker)
T8 construct: SPR protein; also called Design 300 G-CSFR(Ig-CRH)E
T8 chain: T1 chain with F77K, Q93K, R169D
Description: as §1, §2, §3

[9] = target: T9, G-CSFR(Ig-CRH)E design 401, purified, tag cleaved (human, UniProt Q99062 26-331); assay: SPR (Biacore T200), G-CSFR(Ig-CRH)E amine-coupled, G-CSFE injected; steady-state derived KD relative to steady-state WT:WT KD
T9 construct: SPR protein; also called Design 401 G-CSFR(Ig-CRH)E
T9 chain: T1 chain with R43E, R169D, R290D
Description: as §2, §3, §4

B1: G-CSFE design 130 (E46R_L108K_D112R), purified, tag cleaved (ligand)
chain: TPLGPASSLPQSFLLKCLEQVRKIQGDGAALQEKLCATYKLCHPERLVLLGHSLGIPWAPLSSCPSQALQLAGCLSQLHSGLFLYQGLLQALEGISPELGPTLDTLQKDVARFATTIWQQMEELGMAPALQPTQGAMPAFASAFQRRAGGVLVASHLQSFLEVSYRVLRHLAQAAAENLYFQ
notes: also called 130 G-CSF; G-CSF137
binding result [1]: no binding | KD fold change (vs WT:WT) [2]: 0.9 fold | KD fold change (vs WT:WT) [3]: 0.3 fold

B2: G-CSFE design 303, purified, tag cleaved (ligand)
chain: B1 chain with R46E, R147E
notes: also called Design 303 G-CSFE
binding result [1]: no binding | KD fold change (vs WT:WT) [4]: 2.2 fold

B3: G-CSFE design 307, purified, tag cleaved (ligand)
chain: B1 chain with S12E, K16D, E19K, K108L, R112D
notes: also called 307 G-CSF
binding result [1]: no binding | KD fold change (vs WT:WT) [5]: 0.6 fold

B4: G-CSFE design 304, purified, tag cleaved (ligand)
chain: B1 chain with R147E
notes: also called 304 G-CSF
binding result [1]: no binding | KD fold change (vs WT:WT) [6]: 6.5 fold

B5: G-CSFE design 402, purified, tag cleaved (ligand)
chain: B1 chain with E19K, K108L, R112K, T115K
notes: also called Design 402 G-CSFE
binding result [1]: no binding | KD fold change (vs WT:WT) [7]: 0.8 fold

B6: G-CSFE design 300, purified, tag cleaved (ligand)
chain: B1 chain with K40D, L41D, R46E
notes: also called Design 300 G-CSFE
binding result [1]: no binding | KD fold change (vs WT:WT) [8]: 194 fold

B7: G-CSFE design 401, purified, tag cleaved (ligand)
chain: B1 chain with E19K
notes: also called Design 401 G-CSFE
binding result [1]: no binding | KD fold change (vs WT:WT) [9]: 0.6 fold
